According to US20130101582A1, “Tiki1 and Tiki2, Wnt Inhibitors” (CHILDREN'S MEDICAL CENTER CORPORATION, priority 2010, published 2013):

Columns and labels:
[1] = target: T1, Recombinant human WNT3A protein (Homo sapiens, UniProt P56704); assay: In vitro incubation of recombinant WNT3A with purified protein, Triton X-114 phase separation; format: biochemical; details: purified protein incubated with recombinant human WNT3A
Experimental: FIG. 6G is a gel showing that recombinant WNT3A was incubated with Krm2N or Tiki2N purified from WCL (top) or from CM (bottom) and was subjected to Triton X-114 phase separation.
FIG. 6H is a gel showing that Recombinant WNT3A was incubated with Krm2N or Tiki2N or Tiki2NΔ. purified from WCL and was subjected to Triton X-114 phase separation.
(§1) Recombinant human Tiki2N, which is the ectodomain harboring the conserved Tiki domain (FIG. 6J), was purified, via tandem affinity procedures from HEK293T cell extracts or CM.

[2] = target: T1, Recombinant human WNT3A protein; assay: Acyl-biotinyl exchange (ABE) analysis of WNT3A after in vitro incubation; format: biochemical; details: compared with WNT3A incubated with Krm2N
Experimental: FIG. 6I is a gel showing the results of ABE analysis of WNT3A after in vitro incubation with Krm2N or Tiki2N Biotinylation of WNT3A was much reduced after incubation with Tiki2N compared to that of WNT3A incubated with Krm2N.
Biotinylation of Wnt3a secreted in the presence of Tiki2 was much reduced compared to that of Wnt3a from control cells (FIG. 6C). This reduction of available thioester linkage indicates depalmitoylation of Wnt3a at a cysteine residue, e.g., C77, in the presence of Tiki2
as §1

Wnt3a = Wnt3a (Mus musculus, UniProt P27467); assay: Triton X-114 phase separation of Wnt3a secreted from Tiki-expressing cells; format: cell-based; parameters: expressed in transfected cells; host or cells: mouse L cells (Wnt3a-expressing); HEK293T; details: HEK293T cells
From the text: FIG. 6A is a gel showing that Tiki inactivates Wnt3a by regulating Wnt3a acylation/palmitoylation. A Triton X-114 phase separation experiment is shown in 6A. […] T, total; Aq, aqueous; De, detergent.
FIG. 6B is a gel showing that Wnt3a secreted from Tiki1 or Tiki2 but not GFP-expressing HEK293T cells partitioned in the aqueous phase.
C77 palmitoylation is required for Wnt3a activity (Willert, K. et al., Nature 423, 448-452 (2003)) and binding to both Fz and LRP6 (Komekado, H. et al., Genes Cells 12, 521-534 (2007); Cong, F. et al., Development 131, 5103-5115 (2004)), while S209 acylation is critical for Wnt3a secretion (Takada, R. et al., Dev Cell 11, 791-801 (2006)). Thus Tiki proteins may affect C77 palmitoylation but not S209 acylation. The palmitate adduct at C77 is the primary contributor to Wnt3a hydrophobicity because palmitoylated Wnt3a is partitioned in the Triton X-114 detergent phase whereas Wnt3a lacking the palmitate is soluble in the aqueous phase (Willert, K. et al., Nature 423, 448-452 (2003); Komekado, H. et al., Genes Cells 12, 521-534 (2007)).

T1 sequence (P56704 19-352): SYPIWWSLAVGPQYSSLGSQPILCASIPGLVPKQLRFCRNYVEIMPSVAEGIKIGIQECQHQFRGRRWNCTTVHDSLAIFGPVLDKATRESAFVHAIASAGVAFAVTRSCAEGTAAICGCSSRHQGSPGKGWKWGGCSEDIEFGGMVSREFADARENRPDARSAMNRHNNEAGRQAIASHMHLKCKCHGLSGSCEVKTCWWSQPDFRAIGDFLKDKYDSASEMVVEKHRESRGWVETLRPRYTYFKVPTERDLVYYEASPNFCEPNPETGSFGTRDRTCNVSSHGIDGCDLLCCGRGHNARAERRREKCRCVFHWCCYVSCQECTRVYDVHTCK
Chain of Wnt3a (P27467 19-352): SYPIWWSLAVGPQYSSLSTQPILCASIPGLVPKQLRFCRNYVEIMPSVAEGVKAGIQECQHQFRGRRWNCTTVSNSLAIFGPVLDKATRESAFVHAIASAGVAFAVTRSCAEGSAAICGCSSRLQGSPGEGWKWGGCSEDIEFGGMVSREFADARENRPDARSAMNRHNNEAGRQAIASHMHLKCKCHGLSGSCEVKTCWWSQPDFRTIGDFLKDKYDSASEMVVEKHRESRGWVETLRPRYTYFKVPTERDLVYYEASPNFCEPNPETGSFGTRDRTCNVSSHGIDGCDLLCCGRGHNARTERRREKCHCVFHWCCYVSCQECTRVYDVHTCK

B1: Tiki2N: Recombinant human Tiki2N, the ectodomain harboring the conserved Tiki domain (protein)
chain: RPQPPDGGQCRPPGSQRDLNSFLWTIRRDPPAYLFGTIHVPYTRVWDFIPDNSKAAFQASTRVYFELDLTDPYTISALASCQLLPHGENLQDVLPHELYWRLKRHLDYVKLMMPSWMTPAQRGKGLYADYLFNAIAGNWERKRPVWVMLMVNSLTERDVRFRGVPVLDLYLAQQAEKMKKTTGAVEQVEEQCHPLNNGLNFSQVLFALNQTLLQQESVRAGSLQASYTTEDLIKHYNCGDLSAVIFNHDTSQLPNFINTTLPPHEQVTAQEIDSYFRQELIYKRNERMGKRVMALLRENEDKICFFAFGAGHFLGNNTVIDILRQAGLEVDHTPAGQAIHSPAPQSPAPSPEGTSTSPAPVTPAAAVPEAPSVTPTAPPEDEDPALSPHLLLPDSLSQLEEFGRQRKWHKRQSTHQRPRQFNDLWVRIEDSTTASPPPLPLQPTHSSGTAKPPFQLSDQLQQQDPPG
modifications: left off: small tags and cut ends
notes: Recombinant human Tiki2N, the ectodomain harboring the conserved Tiki domain
- Partitioning of WNT3A in Triton X-114 phase separation after in vitro incubation [1]: became segregated in the aqueous phase
- Biotinylation of WNT3A in ABE assay after in vitro incubation [2]: biotinylated to a much less extent
- Partitioning of secreted Wnt3a in Triton X-114 phase separation (Wnt3a): partitioned exclusively in the aqueous phase
